One test has as its target T1, 人CD38胞外区-His (hCD38-His) (human (homo sapiens), UniProt P28907 43-300).
T1 construct: Recombinant, expressed in HEK293 cells; also called 人CD38-His; not shown: His tag at the C-terminus
Put plainly: SPR (Biacore X100), antibody captured by anti-human Fc, human CD38-His as analyte, 25°C.

Test [1] has as its target T2, 食蟹猴CD38胞外区-His (mfCD38-His) (cynomolgus monkey (Macaca fascicularis), UniProt Q5VAN0 44-301).
T2 construct: Recombinant, expressed in HEK293 cells; not shown: His tag at the C-terminus
The test is described as follows: ELISA, mfCD38-His coated at 1.5 μg/ml, HRP mouse anti-human IgG.

B1: S5A10h1 (antibody, V domains shown)
VH: QVQLVQSGAEVKKPGSSVKVSCKASDYPFISYTIHWVRQAPGQGLEWMGYINPSNGYTNYNQKFKDRVTITADKSTSTAYMELSSLRSEDTAVYYCARKYGNFYAMDYWGQGTLVTVSS
VL: DIQMTQSPSSLSASVGDRVTITCRASENIYSYLAWYQQKPGKAPKLLIYNAKTLAEGVPSRFSGSGSGTDFTLTISSLQPEDFATYYCQHHYGTPYTFGQGTKLEIK
notes: Made as a whole antibody of the IgG1 subtype; only variable domains are tied to it; also called 单克隆抗体S5A10h1
B1 returned an equilibrium dissociation constant (Kd) with 人CD38胞外区-His (hCD38-His) of 1.33 nM.

B2: S5A10h1cross+S5B8h2 (bispecific antibody, human IgG1, kappa)
heavy 1: QVQLVQSGAEVKKPGASVKVSCKASGYAFTNSWMHWVRQAPGQGLEWMGEIHPQSGRTNYNEKFKGRVTMTRDTSTSTVYMELSSLRSEDTAVYYCARDLLQFGNQYYYAMDYWGQGTLVTVSSASTKGPSVFPLAPSSKSTSEGTAALGCLVKDYFPEPVTVSWNSGALTSGVHTFPAVLQSSGLYSLSSVVTVPSSSLGTQTYICNVDHKPSNTKVDKTVEPKSCDKTHTCPPCPAPELLGGPSVFLFPPKPKDTLMISRTPEVTCVVVDVSQEDPEVQFNWYVDGVEVHNAKTKPREEQYNSTYRVVSVLTVLHQDWLNGKEYKCKVSNKALPAPIEKTISKAKGQPREPQVCTLPPSQEEMTKNQVSLSCAVKGFYPSDIAVEWESNGQPENNYKTTPPVLDSDGSFFLVSKLTVDKSRWQEGNVFSCSVMHEALHNHYTQKSLSLSPGK
light 1: DIVMTQTPLSLPVTPGEPASISCRSSQSLVHSNGNTYLHWYLQKPGQSPQLLIYKVSNRFSGVPDRFSGSGSGTDFTLKISRVEAEDVGVYYCSQSTHVPLTFGQGTKLEIKRTVAAPSVFIFPPSDEQLKSGTASVVCLLNNFYPREAKVQWKVDNALQSGNSQESVTEQDSKDSTYSLSSTLTLSKADYEKHKVYACEVTHQGLSSPVTKSFNRGEC
heavy 2: not shown
light 2: DIQMTQSPSSLSASVGDRVTITCRASENIYSYLAWYQQKPGKAPKLLIYNAKTLAEGVPSRFSGSGSGTDFTLTISSLQPEDFATYYCQHHYGTPYTFGQGTKLEIKSSASTKGPSVFPLAPSSKSTSGGTAALGCLVKDYFPEPVTVSWNSGALTSGVHTFPAVLQSSGLYSLSSVVTVPSSSLGTQTYICNVNHKPSNTKVDKRVEPKSC
notes: Knob-into-hole plus CrossMab format, four chains
In the case of B2, the binding result in test [1] is on record as “binds”. Besides, the dissociation constant (Kd) in the test with 人CD38胞外区-His (hCD38-His) was determined as 0.0216 nM.

B3: S5A10h1Fab+S5B8h2ScFv (bispecific antibody, human IgG1, kappa)
chain: DIVMTQTPLSLPVTPGEPASISCRSSQSLVHSNGNTYLHWYLQKPGQSPQLLIYKVSNRFSGVPDRFSGSGSGTDFTLKISRVEAEDVGVYYCSQSTHVPLTFGQGTKLEIKGGGGSGGGGSGGGGSQVQLVQSGAEVKKPGASVKVSCKASGYAFTNSWMHWVRQAPGQGLEWMGEIHPQSGRTNYNEKFKGRVTMTRDTSTSTVYMELSSLRSEDTAVYYCARDLLQFGNQYYYAMDYWGQGTLVTVSSEPKSSDKTHTCPPCPAPELLGGPSVFLFPPKPKDTLMISRTPEVTCVVVDVSQEDPEVQFNWYVDGVEVHNAKTKPREEQYNSTYRVVSVLTVLHQDWLNGKEYKCKVSNKALPAPIEKTISKAKGQPREPQVCTLPPSQEEMTKNQVSLSCAVKGFYPSDIAVEWESNGQPENNYKTTPPVLDSDGSFFLVSKLTVDKSRWQEGNVFSCSVMHEALHNHYTQKSLSLSPGK
heavy: not shown
light: DIQMTQSPSSLSASVGDRVTITCRASENIYSYLAWYQQKPGKAPKLLIYNAKTLAEGVPSRFSGSGSGTDFTLTISSLQPEDFATYYCQHHYGTPYTFGQGTKLEIKRTVAAPSVFIFPPSDEQLKSGTASVVCLLNNFYPREAKVQWKVDNALQSGNSQESVTEQDSKDSTYSLSSTLTLSKADYEKHKVYACEVTHQGLSSPVTKSFNRGEC
notes: Fab-FcK/scFv-FcH knob-into-hole format, three chains
Regarding B3, the binding result in test [1] was “binds”. The equilibrium dissociation constant (Kd) with 人CD38胞外区-His (hCD38-His) came to 0.151 nM.

B4: S5B8h2 (antibody, IgG1, V domains shown)
VH: QVQLVQSGAEVKKPGASVKVSCKASGYAFTNSWMHWVRQAPGQGLEWMGEIHPQSGRTNYNEKFKGRVTMTRDTSTSTVYMELSSLRSEDTAVYYCARDLLQFGNQYYYAMDYWGQGTLVTVSS
VL: DIVMTQTPLSLPVTPGEPASISCRSSQSLVHSNGNTYLHWYLQKPGQSPQLLIYKVSNRFSGVPDRFSGSGSGTDFTLKISRVEAEDVGVYYCSQSTHVPLTFGQGTKLEIK
notes: Made as a whole antibody of the IgG1 subtype; only variable domains are tied to it; also called 单克隆抗体S5B8h2
As to B4, in test [1], the binding result was “binds”. Binding in the test with 人CD38胞外区-His (hCD38-His) was put at a Kd of 0.0213 nM.

For the origin of these results see patent publication CN116143933A (BEIJING ZHIREN MEIBO BIOTECHNOLOGY CO LTD, dated 2023).
